Laboratory results reported in the Immune Epitope Database (IEDB).

Experiments:
HLA-A*02:03 = test: IEDB peptide-MHC binding, purified MHC/competitive/radioactivity; ≥ and ≤ were set here for values at or beyond the usual limits of such assays
HLA-A*02:02 [1] = test: as above
HLA-A*02:06 [2] = test: IEDB peptide-MHC binding, cellular MHC/competitive/fluorescence; ≥ and ≤ were set here for values at or beyond the usual limits of such assays
HLA-A*68:02 [3] = test: as above
HLA-A*02:01 [4] = test: as above
HLA-A*02:06 [5] = test: IEDB peptide-MHC binding, purified MHC/competitive/radioactivity; ≥ and ≤ were set here for values at or beyond the usual limits of such assays
HLA-A*68:02 [6] = test: as above
HLA-A*02:02 [7] = test: IEDB peptide-MHC binding, cellular MHC/competitive/fluorescence; ≥ and ≤ were set here for values at or beyond the usual limits of such assays
HLA-A*02:01 [8] = test: IEDB peptide-MHC binding, purified MHC/competitive/radioactivity; ≥ and ≤ were set here for values at or beyond the usual limits of such assays
[9] = source organism: Vaccinia virus WR
[10] = source organism: Influenza A virus

Row | Sequence | IC50 (HLA-A*02:03; [9]) | IC50 (HLA-A*02:02 [1]; [9]) | IC50 (HLA-A*02:06 [2]; [9]) | IC50 (HLA-A*68:02 [3]; [9]) | IC50 (HLA-A*02:01 [4]; [9]) | IC50 (HLA-A*02:06 [5]; [9]) | IC50 (HLA-A*68:02 [6]; [9]) | IC50 (HLA-A*02:02 [7]; [9]) | also measured
1 | NVKSKLLWFL | 0.633 µM | 2.29 µM | 31.1 µM | 7.3 µM | 33.2 µM | – | – | – | –
2 | DLTALLSCI | 0.996 µM | – | – | – | 13.5 µM | 4.88 µM | 1.78 µM | 5.2 µM | –
3 | RILSEKRKDT | 4.16 µM | 0.711 µM | 6.87 µM | 10 µM | 48.7 µM | – | – | – | –
4 | AVIIMAINV | 2.76 µM | – | – | – | – | 0.065 µM | 1.24 µM | 9.07 µM | IC50 (HLA-A*02:01 [8]; [9]): 0.963 µM
5 | CTIVDSMII | 1.79 µM | – | – | – | 5.16 µM | 4.58 µM | 3.08 µM | 13.9 µM | –
6 | ITPTIEDDKI | 4.2 µM | – | – | – | 18.8 µM | 1.5 µM | 2.19 µM | 18.7 µM | –
7 | NVTYNIKPV | 0.153 µM | – | – | – | 6.36 µM | 0.855 µM | 0.376 µM | 22.8 µM | –
8 | EVIERINLLV | 3.33 µM | – | – | – | – | 0.3 µM | 0.02 µM | 19.7 µM | IC50 (HLA-A*02:01 [8]; [9]): 2.69 µM
9 | GVPHSVFIA | 3.63 µM | – | – | – | 5.35 µM | 0.101 µM | 2.99 µM | 5.37 µM | –
10 | SLKRFTHTT | 0.0091 µM | 0.825 µM | 59.7 µM | 42 µM | 5.66 µM | – | – | – | –
11 | SAFDERRNKYL | – | – | – | – | – | – | – | – | IC50 (HLA-A*02:03; [10]): 2.48 µM; IC50 (HLA-A*02:02 [1]; [10]): 1.09 µM; IC50 (HLA-A*02:06 [2]; [10]): ≥ 70 µM; IC50 (HLA-A*68:02 [3]; [10]): 14.1 µM; IC50 (HLA-A*02:01 [4]; [10]): 24.3 µM
12 | HINDQKFDDV | 1.16 µM | – | – | – | 13.2 µM | 1.19 µM | 1.12 µM | 5.86 µM | –
13 | GLCNYGGILI | 3.21 µM | 0.152 µM | 5.03 µM | 35.2 µM | 24.2 µM | – | – | – | –
14 | EMKYALINLV | 0.283 µM | 1.26 µM | 9.84 µM | ≥ 70 µM | 7.36 µM | – | – | – | –
15 | WLTPFEKEFT | 1.55 µM | 2.37 µM | 30.8 µM | ≥ 70 µM | 15.7 µM | – | – | – | –
16 | NLYISDYKML | 1.83 µM | 1.25 µM | 35.9 µM | 30.9 µM | 7.88 µM | – | – | – | –
17 | TTQIIKLLPFA | – | – | – | – | – | – | – | – | IC50 (HLA-A*02:03; [10]): 3.43 µM; IC50 (HLA-A*02:02 [1]; [10]): 2.19 µM; IC50 (HLA-A*02:06 [2]; [10]): 11.6 µM; IC50 (HLA-A*68:02 [3]; [10]): 8.22 µM; IC50 (HLA-A*02:01 [4]; [10]): 5.95 µM

Row | Sequence | IC50 (HLA-A*02:03; [9]) | IC50 (HLA-A*02:02 [1]; [9]) | IC50 (HLA-A*02:06 [2]; [9]) | IC50 (HLA-A*68:02 [3]; [9]) | IC50 (HLA-A*02:01 [4]; [9]) | IC50 (HLA-A*02:06 [5]; [9]) | IC50 (HLA-A*68:02 [6]; [9]) | IC50 (HLA-A*02:02 [7]; [9]) | also measured
18 | LVDKEDTDIV | 1.68 µM | 3.7 µM | 27.2 µM | 56.8 µM | ≥ 70 µM | – | – | – | –
19 | AMHDKKIDIL | 1.18 µM | 0.387 µM | ≥ 70 µM | ≥ 70 µM | 8.94 µM | – | – | – | –
20 | RLTILGKDA | – | – | – | – | – | – | – | – | IC50 (HLA-A*02:03; [10]): 3.51 µM; IC50 (HLA-A*02:02 [1]; [10]): 1.56 µM; IC50 (HLA-A*02:06 [2]; [10]): ≥ 70 µM; IC50 (HLA-A*68:02 [3]; [10]): ≥ 70 µM; IC50 (HLA-A*02:01 [4]; [10]): 10.9 µM
21 | PLSINVSGV | 0.045 µM | 1.12 µM | 17.9 µM | 22.5 µM | 6.54 µM | – | – | – | –
22 | SVGTGILFM | 2.25 µM | 1.09 µM | 20.7 µM | 57.4 µM | 5.15 µM | – | – | – | –
23 | EIDVSEVKTL | 2.24 µM | 4.95 µM | 56.1 µM | 8.12 µM | ≥ 70 µM | – | – | – | –
24 | GIKGLDERFV | 0.844 µM | – | – | – | – | 0.94 µM | 0.492 µM | 6.19 µM | IC50 (HLA-A*02:01 [8]; [9]): 4.39 µM
25 | AAFEDLRLL | – | – | – | – | – | – | – | – | IC50 (HLA-A*02:03; [10]): 1.47 µM; IC50 (HLA-A*02:02 [1]; [10]): 4.45 µM; IC50 (HLA-A*02:06 [2]; [10]): 6.19 µM; IC50 (HLA-A*68:02 [3]; [10]): 18.1 µM; IC50 (HLA-A*02:01 [4]; [10]): 15.5 µM
26 | VADLSARNKL | 2.16 µM | 1.17 µM | 35.9 µM | 7.04 µM | 23 µM | – | – | – | –
27 | ITFLRPVLKA | 0.718 µM | 3.16 µM | 18 µM | 21.4 µM | ≥ 70 µM | – | – | – | –
28 | IIAVFDSKLI | 0.595 µM | 0.758 µM | 8.51 µM | 54.7 µM | 5.93 µM | – | – | – | –
29 | NTFVNFNSV | 0.1 µM | – | – | – | – | 0.00035 µM | 0.0058 µM | 5.02 µM | –
30 | ITRLEVIGL | 0.213 µM | – | – | – | – | 0.776 µM | 4.46 µM | 5.51 µM | IC50 (HLA-A*02:01 [8]; [9]): 3.66 µM
31 | CVNGSCFTV | – | – | – | – | – | – | – | – | IC50 (HLA-A*02:06 [5]; [10]): 1.99 µM; IC50 (HLA-A*68:02 [6]; [10]): 3.25 µM; IC50 (HLA-A*02:01 [8]; [10]): 3.95 µM; IC50 (HLA-A*02:03; [10]): 1.13 µM; IC50 (HLA-A*02:02 [7]; [10]): 12.4 µM
32 | DINVIGLIVI | 2.81 µM | – | – | – | – | 2.79 µM | 2.19 µM | 7.15 µM | IC50 (HLA-A*02:01 [8]; [9]): 1.35 µM
33 | NMKPNFWSRI | 0.193 µM | 1.68 µM | 13.9 µM | 13.1 µM | 23.4 µM | – | – | – | –
